This is an account of results in article PMC9159282, “Structural basis of human LRG1 recognition by Magacizumab, a humanized monoclonal antibody with therapeutic potential” (Acta Crystallographica. Section D, Structural Biology, 2022).

The test deals with T1, 15-amino-acid peptide corresponding to the epitope in LRG1 (human).
T1 construct: leucine-rich alpha-2-glycoprotein 1 (LRG1), human; Gln5Pep is Gln225 of LRG1
T1 chain: GNKLQVLGKDLLLPQ
The test is described as follows: crystal structure; co-crystallization at MagaFab:peptide molar ratios of 1:2 and 1:5, MagaFab 12 mg/ml, 0.2 M NaCl, 0.1 M bis-Tris pH 5.5, 25%(w/v) PEG 3350; two Fab and two peptide molecules per asymmetric unit. The note with it: both partners purified.

B1: Magacizumab Fab fragment (Fab, V domains shown)
VH: QVQLVQSGAEVKKPGSSVKVSCKASGYTFSGYWMNWVRQAPGQGLEWIGQIYPGDGDTNYNGKFKGRVTITADKSTSTAYMELSSLRSEDTAVYYCARSITTVVLDYWGQGTTVTVSS
VL: DIVLTQSPDSLAVSLGERATISCRASQSVSTSGYSFMHWYQQKPGQPPKLLIKYASNLESGVPARFSGSGSGTDFTLTISSLQPEDFATYYCQHSWEMPLTFGQGTKLEIK
notes: heavy (VH) chain of MagaFab is chain B (second copy: chain D) of the deposited structure PDB 7q4q; light (VL) chain of MagaFab is chain A (second copy: chain C) of the deposited structure PDB 7q4q; Fab of a humanized IgG4 derived from the mouse monoclonal antibody 15C4; Observed mass of the Fab 47 461 Da, computed 47 412 Da; also called MagaFab; source: Magacizumab: CHO cell-based expression …
As for B1, the binding result is given as “binds”.
